Sequences and labels used below:
T1: Vam3, the vacuolar Qa-SNARE (wild type) (yeast, UniProt Q12241 1-283)
T1 sequence: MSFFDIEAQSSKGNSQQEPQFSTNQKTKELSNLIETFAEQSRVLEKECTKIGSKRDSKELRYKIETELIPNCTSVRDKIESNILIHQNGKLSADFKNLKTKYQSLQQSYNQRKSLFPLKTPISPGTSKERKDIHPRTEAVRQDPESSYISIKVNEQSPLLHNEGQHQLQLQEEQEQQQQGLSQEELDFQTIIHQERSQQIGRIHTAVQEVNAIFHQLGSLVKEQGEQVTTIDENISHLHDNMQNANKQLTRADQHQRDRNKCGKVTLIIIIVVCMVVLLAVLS

B1: R(JxQa): Nyv1 with the juxtamembrane region of Vam3 and its own TM (other)
chain: MKRFNVSYVEVIKNGETISSCFQPFQKNENYGTITSANEQITPVIFHNLIMDMVLPKVVPIKGNKVTKMSMNLIDGFDCFYSTDDHDPKTVYVCFTLVDMPKILPIRILSGLQEYESNATNELLSSHVGQILDSFHEELVEYRNQTLNSSGNGQSSNGNGQNTISDIGDATEDQIKDVIQIMNDNIDKFLERQERVSLLVDKTSQLNSSSNKFRRKAVNIKQHQRDRNKCGNITLLTFTIILFVSAAFMFFYLW
B2: Vti1, the vacuolar Qb-SNARE (wild type, membrane-anchored) (natural protein)
chain: MSSLLISYESDFKTTLEQAKASLAEAPSQPLSQRNTTLKHVEQQQDELFDLLDQMDVEVNNSIGDASERATYKAKLREWKKTIQSDIKRPLQSLVDSGDRDRLFGDLNASNIDDDQRQQLLSNHAILQKSGDRLKDASRIANETEGIGSQIMMDLRSQRETLENARQTLFQADSYVDKSIKTLKTMTRRLVANKFISYAIIAVLILLILLVLFSKFK
B3: Qa(JxR): Vam3 with the juxtamembrane region of Nyv1 and its own TM (other)
chain: MSFFDIEAQSSKGNSQQEPQFSTNQKTKELSNLIETFAEQSRVLEKECTKIGSKRDSKELRYKIETELIPNCTSVRDKIESNILIHQNGKLSADFKNLKTKYQSLQQSYNQRKSLFPLKTPISPGTSKERKDIHPRTEAVRQDPESSYISIKVNEQSPLLHNEGQHQLQLQEEQEQQQQGLSQEELDFQTIIHQERSQQIGRIHTAVQEVNAIFHQLGSLVKEQGEQVTTIDENISHLHDNMQNANKQLTRADEIMWWQKVKKVTLIIIIVVCMVVLLAVLS

Holding throughout (experiment): co-IP
In assay [1] the target is B3.
Assay [2] has as its target T1, Vam3, the vacuolar Qa-SNARE (wild type).
Assay [3] concerns the target B2.

Regarding B1, the binding result in assay [1] is given as “binds”.

For B2, the binding result in assay [2] is reported as “binds”.

Take B3: in assay [3], the binding result was “binds”.
